Values quoted from earlier work as cited in publication PMC10218885.

How the values were obtained:
Assay in all cases: NMR
Tyr118 = Tyr118 (UniProt position 118, LSGDSYWVFVK)
Tyr42 = Tyr42 (UniProt position 42, GNILQYNAAEG)
Tyr76 = Tyr76 (UniProt position 76, DSPEFYGKFKE)
Tyr94 = Tyr94 (UniProt position 94, NTMFEYTFDYQ)
Tyr98 = Tyr98 (UniProt position 98, EYTFDYQMTPT)

For “Photoactive yellow protein (PYP) (Stated in the article as Halobacterium halobium; the PYP of the cited study is from Halorhodospira halophila (formerly Ectothiorhodospira halophila))”, the pKa (Tyr118) is listed as 11.4–12.0, the pKa (Tyr42) is listed as > 13 and the pKa (Tyr76) is listed as 10.2–10.3. The pKa (Tyr94) was > 13 and the pKa (Tyr98) was 10.2–10.3.
